The supplement of paper PMC9170038

Assays:
Conditions in all cases: FMN input: 0 or 200 uM; Eterna round: R93 (includes R88 designs)
MS2 coat protein [1] = assay: apparent KD of MS2 coat protein, switch ON state; designed switch direction (-1 OFF switch, 1 ON switch): 1; higher = weaker reporter binding
Procedure, shortened: (§1)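 Designed RNA switches, transcribed on-chip from Illumina sequencing clusters, were titrated with SNAP-549-labelled MS2 coat protein from 0.7 or 1.5 nM to 3 µM in twofold steps. The solution was 100 mM Tris-HCl pH 7.5, 80 mM KCl, 4 mM MgCl2, with constant ligand or without it. Apparent KD is the median over each design's normalised cluster binding-curve fits.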

MS2 coat protein [2] = assay: apparent KD of MS2 coat protein, switch OFF state (with FMN for OFF switches, without FMN for ON switches); designed switch direction (-1 OFF switch, 1 ON switch): 1; higher = weaker reporter binding
Procedure, shortened: as §1

MS2 coat protein [3] = assay: apparent KD of MS2 coat protein, switch OFF state (with FMN for OFF switches, without FMN for ON switches); designed switch direction (-1 OFF switch, 1 ON switch): -1; higher = weaker reporter binding
Procedure, shortened: as §1

MS2 coat protein [4] = assay: apparent KD of MS2 coat protein, switch ON state; designed switch direction (-1 OFF switch, 1 ON switch): -1; higher = weaker reporter binding
Procedure, shortened: as §1

Sequence | apparent KD of MS2 coat protein (MS2 coat protein [1]) [nM] | apparent KD of MS2 coat protein (MS2 coat protein [2]) [nM] | apparent KD of MS2 coat protein (MS2 coat protein [3]) [nM] | apparent KD of MS2 coat protein (MS2 coat protein [4]) [nM]
GGGAGACAUGAGGAUCACCCAUGUGAGAAGAGGCGAGGAUAUCGAAAGAAAGAAGAGAAACGAGAAGGCGCGAGGG [salish99-SS1-059] | 57.4 | 75 |  | 
CCUAGACAUGAGGAUCACCCAUGUCGAACAAACAAAGGAUAUGGGAGCCGAAGAAGGCUAUUAGAAGGUUGCAAAU [Aisedbi] | 29.4 | 34 |  | 
UAUCAUUACACGAAGGAUAUCGAUAAUUGAACAUGAGGAUCACCCAUGUGACAUAUCUUACAGUUCGAGAAGGUCGAGGGUGAAG [JR_SS002_Sub706] | 28.9 | 52 |  | 
GGGAGACAUGAGGAUCACCCAUGUGAGAAGAGGCGAGGAUAUCGAAAGAAAGAAGAGAAACGAGAAGGCGCGAGUU [salish99-SS1-054] | 35 | 54.7 |  | 
AUAAAAUAAAAUGAGGAUAUCUAUAAUAAAACAUGAGGAUCACCCAUGUUUAAACAAAGAUCAUGGGAGAAGGCAUAAAAUAAAU [SS2 M 40] | 15.9 | 14 |  | 
AUAAAUAAAAGAGAGGAUAUCCAAAAGAAAACAUGAGGAUCACCCAUGUGAAAGAAAAUAAAAUGGGAGAAGGCUCACAAUAAUA [Topaz 32] | 23 | 26 |  | 
AAAUAAAGGACUGAGGAUAUACCACAUGAAACAUGAGGAUCACCCAUGUUGAAAAACAAAGGGUGGUAGAAGGUAGUCCACAAAC [Same State 2.5a ( so lets mod hyphema)] | 17.2 | 29.3 |  | 
AAUAGACAUGAGGAUCACCCAUGUAGAAUUAUGGGAGGAUAUACAAAGACGAGAGUCAGAGUAGAAGGCCUAGGAC [salish99-ss1-151] | 20.7 | 54 |  | 
AAAUAAAUGACUAAGGAUAUCUCUGAGAAAACAUGAGGAUCACCCAUGUAAUAAUAAAAAGGGUGAGAGAAGGUAGUCAACAAAC [Same State 2.1 (Pariah 4 -changed stack on 9nt hairpin)] | 18 | 68 |  | 
AAAAACAUAGUUCAGGAUAUGGUAAUAGUCACAUGAGGAUCACCCAUGUUCAUUUAUAUGAGCGAUCAGAAGGGAGGUAAAAAAA [Mat - Same state - Malcolm Mod - D115] | 124 | 125 |  | 
AUUUUACAUGAGGAUCACCCAUGUUUUGGUGGAUCAGGAUAUAAAUUGAAUGAGUUUUAGUUAGAAGGGAUAUAUA [JR_SS001_Sub505] | 78.4 | 54 |  | 
AAUCCAACUAGUCAGGAUAUCAGGCGUAAGACAUGAGGAUCACCCAUGUACUUAGUACAAGUAACUGAGAAGGGACAGGGUGACC [JR_SS002_Sub409] | 75.4 | 75.5 |  | 
GUAGAACAUGAGGAUCACCCAUGUGAAGACGCAUGAGGAUAUAUCCGUACAUAGCAUACGAUAGAAGGCAUGAUAA [JR_SS001_Sub1704] | 29.6 | 90.6 |  | 
GGAACACAUGAGGAUCACCCAUGUCAAGGAGGUCGAGGAUAUAGGAAAAAAAAAAAAAAAUUAGAAGGUGAGGAGG [V1] | 169 | 139 |  | 
AAAAAACAUGAGGAUCACCCAUGUGAGAACAUGGGAGGAUAUACGAGGACGAGAGUCAUAGUAGAAGGCCUAAAAA [Garnet 67] | 109 | 65.6 |  | 
AAAUAUAAAAGAUAGGAUAUACUAAAAUAAACAUGAGGAUCACCCAUGUAAAAAAAAAAACUCAUGUAGAAGGAUCAAAUAUAAA [ss2 8th] | 33.4 | 38.1 |  | 
GAAAAACAUGAGGAUCACCCAUGUAGAAACAUGGGAGGAUAUACAAAGACGAAAGUCAAAGUAGAAGGCCUAAAAA [Mat - Same State 1 - Mod - D160] | 149 | 851 |  | 
GAAGACAUAGUUCAGGAUAUAGGAAUAGUCACAUGAGGAUCACCCAUGUGCAUUUAUAUGCGCGCUUAGAAGGGAGGUAGUUAUA [SameState2 Malc#21] | 24.2 | 23.9 |  | 
ACAAAACAUGAGGAUCACCCAUGUCAGAAAUGGCAAGGAUAUAGAAAACAAAAACAAAAACUAGAAGGUGCAAAAC [Meechl SS1 R2 m3] | 84.8 | 154 |  | 
GGAAGACAUGAGGAUCACCCAUGUGGGAAUAUGGGAGGAUAUACAAAGACGAGAGUCAGAGUAGAAGGCCUAGGAA [salish99-ss1-99] | 37.8 | 176 |  | 
AAAAGACAUGAGGAUCACCCAUGUAAAAACAUAGGAGGAUAUGUCGUGAAAAAAGACUUGGCAGAAGGCCUUUGUC [SS1 - 45] | 48.1 | 76.4 |  | 

Sequence | apparent KD of MS2 coat protein (MS2 coat protein [1]) [nM] | apparent KD of MS2 coat protein (MS2 coat protein [2]) [nM] | apparent KD of MS2 coat protein (MS2 coat protein [3]) [nM] | apparent KD of MS2 coat protein (MS2 coat protein [4]) [nM]
UUUAGGAAGAGAGAGGAUAUCCAAAGGAAAACAUGAGGAUCACCCAUGUAAAAGGUAGGAAAUUGGGAGAAGGCUCAAGAGAGAG [salish99-ss2-078] | 5.84 | 16.5 |  | 
AGAAAUAAAAUGGAGGAUAUCCAAAAGAAAACAUGAGGAUCACCCAUGUAAAAGAAAAUAAAAUGGGAGAAGGCCAAAAAUAAAG | 23 | 47.2 |  | 
AAAAAAAAAAACUAGGAUAUUUAACGGACAACAUGAGGAUCACCCAUGUCACAAAAAAAAAUAGUAAAGAAGGAGUAAAAAAAAAA [Same State 2] | 25 | 23.8 |  | 
UGAAAACAUGAGGAUCACCCAUGUCUAGGAAAUCAAGGAUAUGGGCCGGCAAUAGGCGGGCCAGAAGGUGAGAAAU [Arisati] | 88.7 | 144 |  | 
GAAAUAAAAACACAGGAUAUCCAAAAGAAAACAUGAGGAUCACCCAUGUAAAGAAAAUAAAAAUGGGAGAAGGGUGAAAAUAAAG [Mat - Same State 2 - JL mod - D25] | 26.4 | 93.8 |  | 
CGAAAGGAGAGAGAGGAUAUCCAAAGGAAAACAUGAGGAUCACCCAUGUAGAAGGUAGGAGAUUGGGAGAAGGCUCAAGAGAGCU [salish99-ss2-152] | 30.5 | 32.6 |  | 
AACAAUCUAUCUGAGGAUAUAUGUCAAAAGACAUGAGGAUCACCCAUGUAAAAACAUGAAAAAUAAUAGAAGGCAGAUAGAUUGA [SS2: 1140] | 59.9 | 52.4 |  | 
AAAAGACAUGAGGAUCACCCAUGUCAAAACGUAGGAGGAUAUGUCGUGAAAAAAGACUUGGCAGAAGGCCUGUGUC [SS1 - 42] | 15.4 | 19.5 |  | 
AAAAAACAUGAGGAUCACCCAUGUAAGGAUAUGCUAAAAAACACGGAAAAACGUGAUAGCAGAAGGUACAAAAG [Mat - Exclusion 1 - Eli mod - D87] |  |  | 31.2 | 25.5
AUAAAACAUGAGGAUCACCCAUGUGAGGAUAUGCGAAAAUAAAUAAAAUAAAAUAAAAGCAGAAGGUACAAAUA [LROPPY Exclusion 1 - v04_deltaG=2.5 breakup some As] |  |  | 40.2 | 29.3
AAAUAGUUAGGAUAUACAUGAGGAUCACCCAUGUGGACUUAUGGAGAAUAAUUUAGUGGUAGAAGGGACUAAAA [EX2 Malc#27] |  |  | 44.6 | 46.4
AAAAGUACAGGAUAUACAUGAGGAUCACCCAUGUGAAAAUUAAGUGGCGUACAACAAAGUAGAAGGGUACUGGA [Ruby 52] |  |  | 44.6 | 20.7
AAGAAGUCAGGAUAUCGAAGACUGUCGAAAAGACAGUCGAACGAGAAGGGACAUGAGGAUCACCCAUGUGGAAA [Marsurpial 65% 7] |  |  | 112 | 56.3
GAAAACAGAGGAUAUACGGGAUUGACACGAAAAGUGCAAAAACAUGAGGAUCACCCAUGUAGAAGGCUGAAGAA [Meechl MS2... 60% 2] |  |  | 42.5 | 31.5
CUCUAGUCAGGAUAUGCAAGAAAAGAAGAGAAAGAAAAGAAGCAGAAGGGACAUGAGGAUCACCCAUGUAAGAA [EteRNA is fun!] |  |  | 83.4 | 51.3
CUCAUGUCAGGAUAUCAGUAGUAAAAAAAAAAAAUUACUACUGAGAAGGGACAUGAGGAUCACCCAUGUACCUU [EX4 302: Super Stable 2] |  |  | 29.1 | 25.4
AAAGGACGAGGAUAUACAUGAGGAUCACCCAUGUAAAAAACAUAAUAAAAGAACUUGUGUAGAAGGCGUCCAAA [Meechl Ex3 2 R2 v6] |  |  | 335 | 93
CUCAAGUCAGGAUAUAUAAGAAAAGAAGAGAAAGAAAAGAAAUAGAAGGGACAUGAGGAUCACCCAUGUAAGAA [EteRNA is fun!] |  |  | 36.9 | 34.5
AACGGGCUAGGAUAUACACAAGCCUCAGAACAAAUAAACAAACAUGAGGAUCACCCAUGUAGAAGGAGCGCAAA [Lesocerean] |  |  | 42.9 | 30.6
AGUAGUACAGGAUAUACAUGAGGAUCACCCAUGUGAGAAUUAAGUGGCGUACCACAAAGUAGAAGGGUACUACA [Mat - Exclusion 3 - JL mod - D38] |  |  | 211 | 40.1
AAAAAGGGAGGAUAUGCAUACACACAAAAAAAAAAAAAAAAACAUGAGGAUCACCCAUGUAGAAGGCCCAAAAA [Dora Explored 4 - Jieux - Exclusion 2] |  |  | 14.4 | 21.1
